Where “and” joins values, the source holds several entries; their conditions need not be identical. Equal values may be shown once.

This test deals with T1, HER2 (human epidermal growth factor receptor 2) (human, UniProt P04626 23-629).
T1 construct: also called Antigen: HER2
The test can be described thus: SPR.

B1: Trastuzumab HCDR3 variant AVSADIMYGVSV (Fab, V domains shown)
VH: EVQLVESGGGLVQPGGSLRLSCAASGFNIKDTYIHWVRQAPGKGLEWVARIYPTNGYTRYADSVKGRFTISADTSKNTAYLQMNSLRAEDTAVYYCAVSADIMYGVSVWGQGTLVTVSS
VL: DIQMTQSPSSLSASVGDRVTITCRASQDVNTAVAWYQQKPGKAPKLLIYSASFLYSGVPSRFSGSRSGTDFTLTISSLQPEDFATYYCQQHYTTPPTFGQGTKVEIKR
As to B1, the Kd came to 22.9 nM and the “log(KD (M))” value is -7.64.

B2: Trastuzumab HCDR3 variant TRNSFGFYAMDY (Fab, V domains shown)
VH: EVQLVESGGGLVQPGGSLRLSCAASGFNIKDTYIHWVRQAPGKGLEWVARIYPTNGYTRYADSVKGRFTISADTSKNTAYLQMNSLRAEDTAVYYCTRNSFGFYAMDYWGQGTLVTVSS
VL: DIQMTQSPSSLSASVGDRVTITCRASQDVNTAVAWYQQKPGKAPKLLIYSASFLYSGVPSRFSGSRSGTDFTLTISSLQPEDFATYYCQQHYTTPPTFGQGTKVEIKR
In the case of B2, the affinity, expressed as Kd, was 19 nM and the “log(KD (M))” value is -7.72.

B3: Trastuzumab HCDR3 variant TRFLIGSYYYDY (Fab, V domains shown)
VH: EVQLVESGGGLVQPGGSLRLSCAASGFNIKDTYIHWVRQAPGKGLEWVARIYPTNGYTRYADSVKGRFTISADTSKNTAYLQMNSLRAEDTAVYYCTRFLIGSYYYDYWGQGTLVTVSS
VL: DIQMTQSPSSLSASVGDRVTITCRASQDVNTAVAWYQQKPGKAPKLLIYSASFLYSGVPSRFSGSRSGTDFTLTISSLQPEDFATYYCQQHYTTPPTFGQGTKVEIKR
Regarding B3, binding was put at a Kd of 11.6 nM and the “log(KD (M))” value is -7.93.

B4: Trastuzumab HCDR3 variant TRYGSYYYYFDY (Fab, V domains shown)
VH: EVQLVESGGGLVQPGGSLRLSCAASGFNIKDTYIHWVRQAPGKGLEWVARIYPTNGYTRYADSVKGRFTISADTSKNTAYLQMNSLRAEDTAVYYCTRYGSYYYYFDYWGQGTLVTVSS
VL: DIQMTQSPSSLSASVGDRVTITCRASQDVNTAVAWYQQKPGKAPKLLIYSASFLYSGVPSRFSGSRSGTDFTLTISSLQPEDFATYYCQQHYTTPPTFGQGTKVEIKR
In the case of B4, binding was put at a Kd of 3.18 nM and the “log(KD (M))” value was -8.5.

B5: Trastuzumab HCDR3 variant AVYSPDFYYLGY (Fab, V domains shown)
VH: EVQLVESGGGLVQPGGSLRLSCAASGFNIKDTYIHWVRQAPGKGLEWVARIYPTNGYTRYADSVKGRFTISADTSKNTAYLQMNSLRAEDTAVYYCAVYSPDFYYLGYWGQGTLVTVSS
VL: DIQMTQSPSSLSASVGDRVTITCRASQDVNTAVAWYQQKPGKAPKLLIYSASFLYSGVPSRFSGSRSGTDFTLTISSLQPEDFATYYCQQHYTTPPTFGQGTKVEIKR
Turning to B5, the affinity, expressed as Kd, was 2.06 nM and the “log(KD (M))” value was -8.69.

B6: Trastuzumab HCDR3 variant TRYGAPYFYFDY (Fab, V domains shown)
VH: EVQLVESGGGLVQPGGSLRLSCAASGFNIKDTYIHWVRQAPGKGLEWVARIYPTNGYTRYADSVKGRFTISADTSKNTAYLQMNSLRAEDTAVYYCTRYGAPYFYFDYWGQGTLVTVSS
VL: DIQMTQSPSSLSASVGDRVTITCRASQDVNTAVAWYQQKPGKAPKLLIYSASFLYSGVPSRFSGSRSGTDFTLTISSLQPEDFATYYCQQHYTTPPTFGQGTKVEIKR
On to B6, for which binding was put at a Kd of 18 nM and the “log(KD (M))” value is -7.75.

B7: Trastuzumab HCDR3 variant VRYGGTYYYFDY (Fab, V domains shown)
VH: EVQLVESGGGLVQPGGSLRLSCAASGFNIKDTYIHWVRQAPGKGLEWVARIYPTNGYTRYADSVKGRFTISADTSKNTAYLQMNSLRAEDTAVYYCVRYGGTYYYFDYWGQGTLVTVSS
VL: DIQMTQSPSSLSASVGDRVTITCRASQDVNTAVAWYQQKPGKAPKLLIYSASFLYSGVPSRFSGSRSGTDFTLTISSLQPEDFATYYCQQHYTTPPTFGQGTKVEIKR
On to B7, for which the Kd amounted to 15.4 nM and the “log(KD (M))” value was -7.81.

B8: Trastuzumab HCDR3 variant TRYGYGYYYMDY (Fab, V domains shown)
VH: EVQLVESGGGLVQPGGSLRLSCAASGFNIKDTYIHWVRQAPGKGLEWVARIYPTNGYTRYADSVKGRFTISADTSKNTAYLQMNSLRAEDTAVYYCTRYGYGYYYMDYWGQGTLVTVSS
VL: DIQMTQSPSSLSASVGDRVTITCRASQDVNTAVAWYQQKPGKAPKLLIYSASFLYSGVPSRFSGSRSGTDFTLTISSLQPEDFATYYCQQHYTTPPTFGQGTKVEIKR
In the case of B8, binding was put at a Kd of 5.25 nM and the “log(KD (M))” value was -8.28.

B9: Trastuzumab HCDR3 variant VRYGYGYYYMDY (Fab, V domains shown)
VH: EVQLVESGGGLVQPGGSLRLSCAASGFNIKDTYIHWVRQAPGKGLEWVARIYPTNGYTRYADSVKGRFTISADTSKNTAYLQMNSLRAEDTAVYYCVRYGYGYYYMDYWGQGTLVTVSS
VL: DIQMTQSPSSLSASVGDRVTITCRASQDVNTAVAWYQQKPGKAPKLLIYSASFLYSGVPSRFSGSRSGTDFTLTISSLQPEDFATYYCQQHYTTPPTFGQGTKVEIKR
On to B9, for which the affinity, expressed as Kd, was 5.48 nM and the “log(KD (M))” value is -8.26.

B10: Trastuzumab HCDR3 variant VTYGTTYYHFGS (Fab, V domains shown)
VH: EVQLVESGGGLVQPGGSLRLSCAASGFNIKDTYIHWVRQAPGKGLEWVARIYPTNGYTRYADSVKGRFTISADTSKNTAYLQMNSLRAEDTAVYYCVTYGTTYYHFGSWGQGTLVTVSS
VL: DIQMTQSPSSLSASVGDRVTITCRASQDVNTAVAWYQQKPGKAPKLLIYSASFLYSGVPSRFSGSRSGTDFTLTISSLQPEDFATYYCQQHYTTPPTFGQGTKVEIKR
With B10, the Kd is 24.1 nM and the “log(KD (M))” value is -7.62.

B11: Trastuzumab HCDR3 variant VRYGYGYYAMDY (Fab, V domains shown)
VH: EVQLVESGGGLVQPGGSLRLSCAASGFNIKDTYIHWVRQAPGKGLEWVARIYPTNGYTRYADSVKGRFTISADTSKNTAYLQMNSLRAEDTAVYYCVRYGYGYYAMDYWGQGTLVTVSS
VL: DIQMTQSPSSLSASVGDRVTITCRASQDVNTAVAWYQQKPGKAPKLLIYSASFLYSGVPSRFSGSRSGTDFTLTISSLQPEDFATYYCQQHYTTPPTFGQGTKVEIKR
As for B11, the affinity, expressed as Kd, was 10.7 nM and the “log(KD (M))” value was -7.97.

B12: Trastuzumab HCDR3 variant TRYGGGYYYFDY (Fab, V domains shown)
VH: EVQLVESGGGLVQPGGSLRLSCAASGFNIKDTYIHWVRQAPGKGLEWVARIYPTNGYTRYADSVKGRFTISADTSKNTAYLQMNSLRAEDTAVYYCTRYGGGYYYFDYWGQGTLVTVSS
VL: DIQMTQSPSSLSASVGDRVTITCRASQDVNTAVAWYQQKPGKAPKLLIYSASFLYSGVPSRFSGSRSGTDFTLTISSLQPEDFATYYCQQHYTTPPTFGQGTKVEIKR
B12: the Kd was determined as 3.59 nM and the “log(KD (M))” value is -8.45.

B13: Trastuzumab HCDR3 variant TRYYYGLYYFDY (Fab, V domains shown)
VH: EVQLVESGGGLVQPGGSLRLSCAASGFNIKDTYIHWVRQAPGKGLEWVARIYPTNGYTRYADSVKGRFTISADTSKNTAYLQMNSLRAEDTAVYYCTRYYYGLYYFDYWGQGTLVTVSS
VL: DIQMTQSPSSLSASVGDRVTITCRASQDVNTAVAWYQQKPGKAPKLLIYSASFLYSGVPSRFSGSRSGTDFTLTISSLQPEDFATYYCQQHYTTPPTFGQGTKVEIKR
Turning to B13, binding was characterised by a dissociation constant (Kd) of 3.02 nM and the “log(KD (M))” value was -8.52.

B14: Trastuzumab HCDR3 variant STYARDYYHFGS (Fab, V domains shown)
VH: EVQLVESGGGLVQPGGSLRLSCAASGFNIKDTYIHWVRQAPGKGLEWVARIYPTNGYTRYADSVKGRFTISADTSKNTAYLQMNSLRAEDTAVYYCSTYARDYYHFGSWGQGTLVTVSS
VL: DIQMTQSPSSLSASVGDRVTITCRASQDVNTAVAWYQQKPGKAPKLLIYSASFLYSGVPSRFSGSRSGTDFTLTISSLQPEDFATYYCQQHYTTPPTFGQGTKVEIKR
In the case of B14, the Kd was 12.6 nM and the “log(KD (M))” value is -7.9.

B15: Trastuzumab HCDR3 variant VRYGYGYYYFDY (Fab, V domains shown)
VH: EVQLVESGGGLVQPGGSLRLSCAASGFNIKDTYIHWVRQAPGKGLEWVARIYPTNGYTRYADSVKGRFTISADTSKNTAYLQMNSLRAEDTAVYYCVRYGYGYYYFDYWGQGTLVTVSS
VL: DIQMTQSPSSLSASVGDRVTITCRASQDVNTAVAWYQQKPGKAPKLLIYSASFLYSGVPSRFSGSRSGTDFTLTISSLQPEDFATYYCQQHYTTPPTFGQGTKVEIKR
For the molecule B15, the affinity, expressed as Kd, was 2.77 nM and the “log(KD (M))” value is -8.56.

B16: Trastuzumab HCDR3 variant VRWRSDFYYFDY (Fab, V domains shown)
VH: EVQLVESGGGLVQPGGSLRLSCAASGFNIKDTYIHWVRQAPGKGLEWVARIYPTNGYTRYADSVKGRFTISADTSKNTAYLQMNSLRAEDTAVYYCVRWRSDFYYFDYWGQGTLVTVSS
VL: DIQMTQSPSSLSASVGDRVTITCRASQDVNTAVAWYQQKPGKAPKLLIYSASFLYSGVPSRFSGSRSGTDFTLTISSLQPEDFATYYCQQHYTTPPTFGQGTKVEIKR
On to B16, for which the Kd was determined as 4.95 nM and the “log(KD (M))” value was -8.31.

B17: Trastuzumab HCDR3 variant TRFRSFFYNFDY (Fab, V domains shown)
VH: EVQLVESGGGLVQPGGSLRLSCAASGFNIKDTYIHWVRQAPGKGLEWVARIYPTNGYTRYADSVKGRFTISADTSKNTAYLQMNSLRAEDTAVYYCTRFRSFFYNFDYWGQGTLVTVSS
VL: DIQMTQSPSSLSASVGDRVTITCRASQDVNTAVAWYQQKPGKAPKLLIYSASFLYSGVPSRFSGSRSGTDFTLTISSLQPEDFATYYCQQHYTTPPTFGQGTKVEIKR
Turning to B17, the dissociation constant Kd was 5.4 nM and the “log(KD (M))” value is -8.27.

B18: Trastuzumab HCDR3 variant TRYGYGYYYFDY (Fab, V domains shown)
VH: EVQLVESGGGLVQPGGSLRLSCAASGFNIKDTYIHWVRQAPGKGLEWVARIYPTNGYTRYADSVKGRFTISADTSKNTAYLQMNSLRAEDTAVYYCTRYGYGYYYFDYWGQGTLVTVSS
VL: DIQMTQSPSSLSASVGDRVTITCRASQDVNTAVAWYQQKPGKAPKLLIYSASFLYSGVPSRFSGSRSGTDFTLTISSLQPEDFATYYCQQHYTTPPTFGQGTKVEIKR
Take B18: binding was characterised by a dissociation constant (Kd) of 2.73 nM and the “log(KD (M))” value was -8.56.

B19: Trastuzumab HCDR3 variant VRYGGGYYYFDV (Fab, V domains shown)
VH: EVQLVESGGGLVQPGGSLRLSCAASGFNIKDTYIHWVRQAPGKGLEWVARIYPTNGYTRYADSVKGRFTISADTSKNTAYLQMNSLRAEDTAVYYCVRYGGGYYYFDVWGQGTLVTVSS
VL: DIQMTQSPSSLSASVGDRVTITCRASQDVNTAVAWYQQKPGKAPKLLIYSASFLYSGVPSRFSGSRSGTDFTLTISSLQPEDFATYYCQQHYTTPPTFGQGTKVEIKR
For B19, the Kd was determined as 3.96 nM and the “log(KD (M))” value is -8.4.

B20: Trastuzumab HCDR3 variant VRYGYDYYWFDY (Fab, V domains shown)
VH: EVQLVESGGGLVQPGGSLRLSCAASGFNIKDTYIHWVRQAPGKGLEWVARIYPTNGYTRYADSVKGRFTISADTSKNTAYLQMNSLRAEDTAVYYCVRYGYDYYWFDYWGQGTLVTVSS
VL: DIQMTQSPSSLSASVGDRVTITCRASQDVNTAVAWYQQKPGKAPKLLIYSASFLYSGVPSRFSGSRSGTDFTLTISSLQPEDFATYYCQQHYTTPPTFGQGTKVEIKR
In the case of B20, the Kd was determined as 10.4 nM and the “log(KD (M))” value is -7.98.

B21: Trastuzumab HCDR3 variant VRWGGYYYYFDY (Fab, V domains shown)
VH: EVQLVESGGGLVQPGGSLRLSCAASGFNIKDTYIHWVRQAPGKGLEWVARIYPTNGYTRYADSVKGRFTISADTSKNTAYLQMNSLRAEDTAVYYCVRWGGYYYYFDYWGQGTLVTVSS
VL: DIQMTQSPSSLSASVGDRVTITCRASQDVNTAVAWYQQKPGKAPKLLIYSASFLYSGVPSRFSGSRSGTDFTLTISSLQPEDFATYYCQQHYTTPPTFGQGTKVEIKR
As for B21, the Kd amounted to 6.35 nM and the “log(KD (M))” value was -8.2.

B22: Trastuzumab HCDR3 variant VRYGGDYYYFDY (Fab, V domains shown)
VH: EVQLVESGGGLVQPGGSLRLSCAASGFNIKDTYIHWVRQAPGKGLEWVARIYPTNGYTRYADSVKGRFTISADTSKNTAYLQMNSLRAEDTAVYYCVRYGGDYYYFDYWGQGTLVTVSS
VL: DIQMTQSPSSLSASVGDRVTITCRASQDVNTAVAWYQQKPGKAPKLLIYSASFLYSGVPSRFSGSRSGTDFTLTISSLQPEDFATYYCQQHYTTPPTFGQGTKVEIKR
Turning to B22, the affinity, expressed as Kd, was 21.9 nM and the “log(KD (M))” value is -7.66.

B23: Trastuzumab HCDR3 variant ARYGGYGGYYFDY (Fab, V domains shown)
VH: EVQLVESGGGLVQPGGSLRLSCAASGFNIKDTYIHWVRQAPGKGLEWVARIYPTNGYTRYADSVKGRFTISADTSKNTAYLQMNSLRAEDTAVYYCARYGGYGGYYFDYWGQGTLVTVSS
VL: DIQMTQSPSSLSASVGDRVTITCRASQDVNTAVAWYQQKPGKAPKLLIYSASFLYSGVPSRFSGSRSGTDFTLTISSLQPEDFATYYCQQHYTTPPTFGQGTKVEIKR
With B23, binding was characterised by a dissociation constant (Kd) of 14 nM and the “log(KD (M))” value is -7.85.

B24: Trastuzumab HCDR3 variant AKFAYYGPYHFDP (Fab, V domains shown)
VH: EVQLVESGGGLVQPGGSLRLSCAASGFNIKDTYIHWVRQAPGKGLEWVARIYPTNGYTRYADSVKGRFTISADTSKNTAYLQMNSLRAEDTAVYYCAKFAYYGPYHFDPWGQGTLVTVSS
VL: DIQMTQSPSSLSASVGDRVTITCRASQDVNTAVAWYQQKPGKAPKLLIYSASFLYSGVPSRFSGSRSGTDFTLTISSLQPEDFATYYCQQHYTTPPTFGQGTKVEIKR
For the molecule B24, the Kd was 10.1 nM and the “log(KD (M))” value was -7.99.

B25: Trastuzumab HCDR3 variant AKYGATGWYYFDY (Fab, V domains shown)
VH: EVQLVESGGGLVQPGGSLRLSCAASGFNIKDTYIHWVRQAPGKGLEWVARIYPTNGYTRYADSVKGRFTISADTSKNTAYLQMNSLRAEDTAVYYCAKYGATGWYYFDYWGQGTLVTVSS
VL: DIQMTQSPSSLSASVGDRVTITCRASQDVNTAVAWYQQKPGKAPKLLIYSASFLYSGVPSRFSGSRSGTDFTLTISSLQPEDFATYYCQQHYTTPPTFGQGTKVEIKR
With B25, binding was put at a Kd of 14.1 nM and the “log(KD (M))” value is -7.85.

B26: Trastuzumab HCDR3 variant AKYINAYSYAFFD (Fab, V domains shown)
VH: EVQLVESGGGLVQPGGSLRLSCAASGFNIKDTYIHWVRQAPGKGLEWVARIYPTNGYTRYADSVKGRFTISADTSKNTAYLQMNSLRAEDTAVYYCAKYINAYSYAFFDWGQGTLVTVSS
VL: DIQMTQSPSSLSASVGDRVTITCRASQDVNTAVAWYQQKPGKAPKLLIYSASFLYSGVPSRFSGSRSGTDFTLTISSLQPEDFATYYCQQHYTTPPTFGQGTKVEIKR
Turning to B26, the Kd was 17 nM and 16.9 nM; the “log(KD (M))” value was -7.77.

B27: Trastuzumab HCDR3 variant AATYGGLGDMSSI (Fab, V domains shown)
VH: EVQLVESGGGLVQPGGSLRLSCAASGFNIKDTYIHWVRQAPGKGLEWVARIYPTNGYTRYADSVKGRFTISADTSKNTAYLQMNSLRAEDTAVYYCAATYGGLGDMSSIWGQGTLVTVSS
VL: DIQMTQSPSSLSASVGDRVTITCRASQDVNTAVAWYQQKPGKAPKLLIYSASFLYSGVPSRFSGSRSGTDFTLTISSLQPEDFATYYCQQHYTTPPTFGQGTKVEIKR
With B27, the affinity, expressed as Kd, was 27 nM and the “log(KD (M))” value was -7.57.

B28: Trastuzumab HCDR3 variant AKYAYYGDFWGSV (Fab, V domains shown)
VH: EVQLVESGGGLVQPGGSLRLSCAASGFNIKDTYIHWVRQAPGKGLEWVARIYPTNGYTRYADSVKGRFTISADTSKNTAYLQMNSLRAEDTAVYYCAKYAYYGDFWGSVWGQGTLVTVSS
VL: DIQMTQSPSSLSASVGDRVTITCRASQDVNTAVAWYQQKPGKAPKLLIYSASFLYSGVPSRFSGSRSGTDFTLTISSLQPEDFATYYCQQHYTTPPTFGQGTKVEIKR
As to B28, the Kd was 17.5 nM and the “log(KD (M))” value is -7.76.

B29: Trastuzumab HCDR3 variant AKYGGVGYYAMDY (Fab, V domains shown)
VH: EVQLVESGGGLVQPGGSLRLSCAASGFNIKDTYIHWVRQAPGKGLEWVARIYPTNGYTRYADSVKGRFTISADTSKNTAYLQMNSLRAEDTAVYYCAKYGGVGYYAMDYWGQGTLVTVSS
VL: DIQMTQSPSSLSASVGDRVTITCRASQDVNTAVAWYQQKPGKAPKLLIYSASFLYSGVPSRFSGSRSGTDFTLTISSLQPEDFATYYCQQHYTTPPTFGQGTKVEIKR
In the case of B29, the Kd came to 25.2 nM and the “log(KD (M))” value was -7.6.

These data come from patent US20250218531A1 (ABSCI, published 2025).
